Assay: soluble on expression in E. coli; label from the status in PepcDB or PDB records

Soluble on expression in E. coli, not soluble:
MHILVTGAAGFIGSHTVLELLNSGYTVLCIDNFANAISDEHGNAISLKRVAQLTGKDVPFQNVDVCDEAALEKVFSENKFDGIIHLAALKAVGESVAKPLQYYSNNLVASLNLIQMCLKYNVKNFVFSSSATVYGPPSELPITEKSQTGQGITNPYGQTKYMMEQILIDVGKANPEWNVVLLRYFNPVGAHKSGLIGEDPKGVPNNLMPYVSQVAIGKLPVLTIYGDQFDTVDGTGVRDYIHVVDLAKGHVKAFDRIKTVGNIGTEIYNLGTGVGYSVRQMVDALKKVSGRDIPVKIGVPRPGDVASVYCDPSLAQEKLGWRAETGLEEMCADLWNWQTKNPQGFSA
MAHHHHHHMRNSFFPMLCEKQSTPELEAMPLYLPDTVVLQLHRHDGEAEFADYMDANSLTFVALGDAERPALCGIDATAQLHYEGAQRTLVSAAGIVSGIRRRRLRVPFGMSELSELLRRAYNTEKGNRNNSLTGSTETVLLTHLFSDAVWAEESFHCLSTTRRVGNILGSTGIGSATRDLAVERWRLDQDIMELRDELMIARTVYDYRHCGYESNRSISGMEEEGMKRVNAIQSNREEERKWQLSVFCERAKHEAEKMIKELEQRGGATLDELQKTLEAKKRESSALQADRENRIWEYEHTLEKIRTRKQDEESASERLRQAMQQLEQELSLRQSAIETREQQLEMVQLDGARGREAIMRERHSIEAVSPAEAVDPSD
ATKEFIYLVRGMTPEQGQAALDLKVPGVYGIEEFRRFYPAGDVTAHMVGFTDLDDHGREGVELAYDDWLAGVPGKRQVIKDRRGRLIKDVQVTKNAKAGKTLALSID
MRSQPTVSVIVPARNEAGNIAAAVERLPELGAETELIFVEGHSRDQTWETIEQTVAEYQGPLKLLACRQTGKGKADAVRLGFDKASGDILMILDADLTVQPEDLGHFYRAIASGRGEFINGSRLVYPRSRLAMPGLNTLANRTFALIFSFLLGQPLKDTLCGTKVLWKTDYDRVAAGRKYFGDFDPFGDFDLLFGAAKLGLEIVEVPVRYQERSYGSSNIAHVREGLILARMCLYAAGKLKFPLEHHHHHH
MGSDKIHHHHHHMAWLLVGTKKYEDFEKNERVNRWYLNVRARSPISADIWRRSLLRYCTINNTTPEGLLDMAQKGTLKDNFQDFTIRMIAEGRRGAYLAKVKEILHSWIRFNDIDYKIRINIPNERLNETTMDERVPTKEELSKILRMGTVRSRVSVSLMAFSGLRPEVLGNYEGTDGLTLGDIEDLDIDTLTFKNVPAKINVRNGLSKTRLKYFTFLGQEGCGYLKDYLDHRKASGEILKKESALLAPDPGNVQTAHGFLRTALIAREIRKAIRNSNLSMRPYVLRVYFATALDIAESKGSISHPWRQYIMGHKGDIEATYSTNKRLLPETIEGMRSAYLKCTKFFETEEKGIKEEDYQKMLRDSAIDTLTGAFGITLTDDQKEELRNLDTAEYQKRLGEIFKDRKADLLNNGNSQKVIPFKDVEKYIEQGWEYVRDFPGNKAIVRLPS
MGSDKIHHHHHHMRIAIIAITRNGARLGTQLRDGLGSAELYVLQKFAGQAGTGAVPFAGELKGLVAELWPAFDGFVFIMATGIVVRMVAPHLVAKDLDPAVVVMDDAGKFAVSLLSGHLGGANELACRCAFVTGAREVITTATDANNLPSFDMLAKEEGWAIDDLCRVKTLNALILEGEEIAVVDPTDRVRTAFHGTARLTFHDTFVEALQSGAKGFVFVTNRRLPPQAQADSLLILRPRNLALGIGCNSGTGAEEIAAVVGAQMKRLFLSLKSVACIGSAVAKQDEAGLLAFAREHGLPLRFFESGELNSVTVPSPPSAHALEAIGATGVAEPAAVLASNGGRLLLKKIKSGNVTLAIAEIP
ATPSRKQRVSTLWISDVHLGTRDCQAEHLSAFLKRYQADKVYLVGDIIDGWKLRGGMYWPQAHTNVIRRLLTMSKRGTEVIYVTGNHDEFLRRYSKLVLGNIQLVDEAEHVTAEGRRLLVIHGDQFDVITRYHRWLAFLGDSAYEFTLTLNRWLNHWRAKYGYGYWSLSAYLKHKVKSAVNFISDFEEAIAHECVKRGLDGVVCGHIHHAEIRQVGGVEYLNCGDWVESCTALIEHLDGTIELFRLADAHLKASQPV
MHYCPGCSHGVVHKLIAEVIEEMGLTEETIGIAPVGCSVFAYRYIDIDWQEAAHGRAPALATAVKRLNPSKLVFTYQGDGDLAAIGTAETIHAANRGENIAIIFINNGIYGMTGGQMAPTTLEGMVTATCPQGRNVELNGYPLKIADMLALLDGTCLVTRQTVHNAAAVRKTKKMIQKAFENSMNRKGTSIVEVVSTCNTGWKMSPAASNDWMMENMAKQYPLGDLKNID
MTTVRQRIDTQHRDAIHDAQLNIYGSRLATCGSDRLVKIFEVRPNGQSYPMAELVGHSGPVWKVSWAHPKYGGLLASASYDKKVIIWNEQQGRWQKAYEWAAHEASTTCVAFAPHQYGLMLASASADGDIGILRYDNSSNEWISSKIQKCHEQGVNSVCWAPGSADPAAKKRLVSAGNDKNVKIWAFDDATNEWILEKTLAGHTDFVREAAWCPVTNNGQHTIVSCGMEGNLVLFRTSNIETEEWKAKLLETAPCALYHSSFSPCGSFLSVAGDDNVITIWRENLQGQWIKVPRDNKEREGMSQAVGAPGAQR
MSPEEVKARGWKELDVILVTGDAYVDHSSFGTAIIGRVLEDAGFRVGIIAQPRWENPEDFKKLGKPRLFFSVSAGNTDSMVSNLTPGLKPRNKDAYSPGGKTGLRPNRAAIIYSNRIKEAFPDMPIVLGGIEASMRRFAHYDYLSDKVRQSILADAPADLVVYGMGELQIVEIAKRLQAGEDIKGIRDISGTVWKMEVKAWKELKGKGKEKAGEQDESENATEEVAKDKSLDPAEFFKEYVEIPSFSEVSQDKAVFAKAFRTYFLEQNPVTGKGIVQPHPKTIIIQNKPMRPLTEAELDHVYELPYTGETHPSYTEPVPALEMVKFSLTTHRGCF

Soluble on expression in E. coli, soluble:
MSLNDFRPNPSLLLETSWEVCNKQGGIYTVLTSRAHEMMKRHDGRIIFIGPLLTEQEDLPTDFENTVPAILEDWHRDAAPSLDLRYVCGSWRTPGSPPVVLVDFEPLHAQKATLYYEMWEHFGIQSDKGYGDYDEASLFGIAAAQTMHSLCEYLCPEDQPAIGIFNEWMLGMGLLYSKRKTPRLKTLFLTHATTTGRSIAGNNKALYAYMPGYNGDQMAAELGVEAKHGIEKAAAHQSDTFATVSELTAKECRQLLERDPMVLPNGFEPNFVPQGEEYERRRAEARKRLLHVAEHLTGKQLPADTLLIATSGRYEYRNKGIDLFIDAASEAGRSGKLRTPTLAFILVPAWVAGARADLQYLLNHPDPTEYKEKPLPYPFLTHWLHDIQEQTISKRLDESAGSAGEVSFIFVPCYLNRKDGIFGLGYYDLLIGMDLTVFPSYYEPWGYTPLESIAFGIPTVTTDLSGFGLWAMQERGSRNDFSTGVAVIKRTDDNYAEAVQAIADLLYRWPAESTDRTACRLAAMQTASHAEWRLFYNRYEEAYSELLSRDEGHHHHHH
RRRRPSSSRRLRGRGAAQMACPALGLEALQPLQPEPPPEPAFSEAQKWIEQVTGRSFGDKDFRTGLENGILLCELLNAIKPGLVKKINRLPTPIAGLDNIILFLRGCKELGLKESQLFDPSDLQDTSNRVTVKSLDYSRKLKNVLVTIYWLGKAANSCTSYSGTTLNLKEFEGLLAQMRKDTDDIESPKRSIRDSGYIDCWDSERSDSLSPPRHGRDDSFDSLDSFGSRSRQTPSPDVVLRGSSDGRGSDSESDLPHRKLPDVKKDDMSARRTSHGEPKSAVPFNQYLPNKSNQTAYVPAPLRKKKAEREEYRKSWSTATSPLGGERPFRYGPRTPVSDDAESTSMFDMRCEEEAAVQPHSRARQEQLQLINNQLREEDDKWQDDLARWKSRRRSVSQDLIKKEEERKKMEKLLAGEDGTSERRKSIKTYREIVQEKERRERELHEAYKNARSQEEAEGILQQYIERFTISEAVLERLEMPKILERSHSTEPNLSSFLNDPNPMKYLRQQSLPPPKFTATVETTIARASVLDTSMSAGSGSPSKTVTPKAVPMLTPKPYSQPKNSQDVLKTFKVDGKVSVNGETVHREEEKERECPTVAPAHSLTKSQMFEGVARVHGSPLELKQDNGSIEINIKKPNSVPQELAATTEKTEPNSQEDKNDGGKSRKGNIELASSEPQHFTTTVTRCSPTVAFVEFPSSPQLKNDVSEEKDQKKPENEMSGKVELVLSQKVVKPKSPEPEATLTFPFLDKMPEANQLHLPNLNSQVDSPSSEKSPVTTPQFKFWAWDPEEERRRQEKWQQEQERLLQERYQKEQDKLKEEWEKAQKEVEEEERRYYEEERKIIEDTVVPFTVSSSSADQLSTSSSMTEGSGTMNKIDLGNCQDEKQDRRWKKSFQGDDSDLLLKTRESDRLEEKGSLTEGALAHSGNPVSKGVHEDHQLDTEAGAPHCGTNPQLAQDPSQNQQTSNPTHSSEDVKPKTLPLDKSINHQIESPSERRKKSPREHFQAGPFSPCSPTPPGQSPNRSISGKKLCSSCGLPLGKGAAMIIETLNLYFHIQCFRCGICKGQLGDAVSGTDVRIRNGLLNCNDCYMRSRSAGQPTTL
MAKILVAGKIPEIGLELLKDHDVEMYDKEELISLDELTERVKDKDALLSLLSTKVTKEVIDAAPSLKIVANYGAGYDNIDYTYAGEKGIAVTNTPKVSTEATAELTFALLLAAARRIPEGDTLCRTTGFNGWAPLFFLGREVHGKTIGIIGLGEIGKAVAKRAKAFGMNILYTGPNRKPEAESELEATYVTLEELLQTADFITINCAYNPKLHHMIDEEQFKMMKKTAYIVNASRGPIMHEAALAHALKTNEIEGAALDVFEFEPKITEELKGLKNVVLAPHVGNATFETRDAMAEMAVRNILAVLKGEEPVTPVNQKVFVTK
MNSEQIYHVDFKQSKRIKSFHYAGGLFQLTSDGVIFVGKDKDNNELPPRWICSSLSVVAKTRDANSGEWGRLLEWVDDDGIKHQWAMPLALLQGDSSDVRRELARLGLTISPSKTARDLLASYIQVFPVEERARCVDKLGWYKEVFVTANEAIGQSLSVAGSVEDWRNSISRLADGNSRLVFAISAAFAPSLANLVGEDSGGFHFRGASSSGKTTALKVAASVWGKPDSYIRLWRSTANGLEGLAALHNDGLLILNELSQMDPKEAGECAYLLANGQGKTRASRCGTARQSMRWSLLFLSAGEESLTSLMAKAGQRCNAGQEIRLADIEADAGAEMGLFEQLHDHINPAAMSLALKEAASQYHGAVGLAWLHKIVKHRAELIALLTNKIQHFVAKVTKPEHSGQIQRVARRFALVAMAGEIATHYELTGWTRGTACNPAEKCFNAWLKDFGEHGNREDRAILSQVRAFFEKEGASRFENENHPNSERLFNRAGFFHTDSEGFRVFMVLSEVYRKEICQGFEPKMVNKVLINAGWIVPGNDGKASQKRRIKGIGIPRCYIFTEKVWSDDYLEHHHHHH
MGSDKIHHHHHHMTEIATIEKPAQHGATTRLIDIVFPGDTNHHGTLFGGTGLALMDRVAFIAATRFGRTPFVTASCERIDFRQPARIGHIVEFTARPVKAGRRSLTVEVEMVAETIIGRQQHTCTRGIFHMVAIPEGEDAASYVLPELLTEETPDPSDAVTMVEIVFPDQANSAGRMFGGEAIAYMTKAAFVAASRYCGKLVVLASSERIDFARAIEIGEIVEAQAHVERVGRSSMSIQTKLWSENLLTGERHITATGHFTMVAVDKDHRPATIRDPAEAFSLEKGGA
MSLHSVKASANRFTKTSQGRSWNTGNGSPDAICFAVDKPGIVVVGFAVYGGGGIHEYELEVLVDDSEHAGDSTHSHRWTSLELVKGTYTTDDSPSDIAEIRLDKVVPLKENVKYAVRLRNYGSRTANGDGGMTTVQCPDGVTFTFSTCSLSSNGTNQTRGQIPQILYYRSEFDGDLQSQLLSKANEEDKNCSRALSVVSTVVRAAKDLLHRALAVDADEGHHHHHH

— the DeepSol protein solubility set
